US20250288652A1, “BACTERIOPHAGE LYSINE, CHIMERA THEREOF AND APPLICATION THEREOF” (priority 2021, published 2025)
“And” between values parts separate entries of the source, which are not always exact repeats. Equal values may be shown once.

Key:
[1] = system: biofilm-associated P. acnes strain 10; assay: Killing of biofilm-associated P. acnes (CFU count); assay type: cell-based, Propionibacterium acnes; conditions: strain 10 biofilm, treated overnight at 25° C. under anaerobic conditions
Experimental: Strain 10 with an OD600 of 1.0 was added to a 96-well polystyrene plate to inoculate the biofilm overnight in an anaerobic gas mixture. The supernatant was removed and the wells were gently rinsed with 0.9% NaCl. Biofilm formation medium (RCM+5% glucose) was added to allow biofilm growth overnight in the anaerobic gas mixture. The medium was removed and the wells were gently rinsed with 0.9% NaCl. Biofilms were then treated with buffer or PACL403 overnight at 25° C. under anaerobic conditions. The buffer or PACL403 was removed and the wells were rinsed with 0.9% NaCl. Resuspend in 0.9% NaCl, plate on RCM agar and count biofilm-associated CFU.

[2] = system: Propionibacterium acnes; assay: MIC of selected lysin after single-step purification, Example 8; assay type: cell-based; conditions: single-step purified lysin
Experimental: Express PACL 10, 390, 391, 392, 403 and 404 according to the method of Examples 1-4, and perform the following single-step purification: put Escherichia coli BL21 (DE3) containing each recombinant expression plasmid in the self-induction medium incubate at 37° C., 300 rpm for 3 hours, then at 18° C., 300 rpm for 16-18 hours. Cells were collected by centrifugation and lysed by homogenizatoin under high pressure. Clarified lysate from 1 L of E. coli culture medium expressing the protein of interest was loaded onto a 26 mm/200 mm column containing 70 mL of purification resin. The lysin was purified according to the conditions in Table 8-1, and the purity determination of the lyase after single-step purification is shown in FIG. 5. These lysin are used to determine the minimal inhibitory concentration (MIC).
The minimal inhibitory concentration (MIC) determination method is as follows. Propionibacterium acnes is streaked on Fortified Clostridium Agar (Fortified Clostridium Medium RCM with 1.5% agar, RCM was prepared according to the revised recipe, per liter—10 g acid hydrolyzed casein, 10 g beef extract, 3 g yeast extract, 5 g D—glucose, 5 g sodium chloride, 3 g sodium acetate, 0.5 g L-cysteine hydrochloride). Plates were incubated anaerobically at 37° C. for 72 hours. The inoculum for MIC determination was first prepared by resuspending single clones from RCA in 0.9% saline to an OD600 of 0.05, corresponding to 10^7 colony-forming units per milliliter (cfu/mL). The suspension was diluted 20-fold in RCM to an inoculum of 5*10^5 cfu/mL. Two-fold serial dilutions of each lyase were prepared in 0.9% saline and added not to exceed one-tenth of the total culture volume. Cultures were grown anaerobically at 37° C. for 48-72 hours. The MIC is the lowest concentration of lyase at which no growth of P. acnes can be observed with the naked eye.

[3] = system: Propionibacterium acnes; assay: Minimum bactericidal concentration (MBC) determination, Example 6; assay type: cell-based; conditions: listed as #10
Experimental: (§1) The minimal inhibitory concentration (MIC) determination method is as follows. First prepare a colony suspension in 0.9% saline to an OD600 of 0.05 to prepare an inoculum, which corresponds to 10^7 colony-forming units per mL (cfu/mL). The suspension was diluted 20 times in agar-free enhanced Clostridium medium (RCM) to an inoculum of 5*10^5 cfu/mL. Prepare 2-fold serial dilutions of PACL10 or vancomycin with 0.9% saline and add no more than one-tenth of the total culture. Cultures were grown anaerobically at 37° C. for 3 days. The MIC is the lowest concentration of PACL10 or vancomycin at which no growth of P. acnes can be observed with the naked eye. The minimum bactericidal concentration (MBC) was determined by subculturing the above cultures on enhanced Clostridium agar (RCA) plates containing 0.1% Tween-80. MBC is the lowest concentration of PACL10 or vancomycin at which no P. acnes colonies are seen on the enhanced Clostridium agar (RCA) plate.

[4] = system: Propionibacterium acnes; assay: Minimum inhibitory concentration (MIC) determination, Example 6; assay type: cell-based; conditions: listed as #10
Experimental: as §1

[5] = system: P. acnes 34A strain; assay: Time sterilization (time killing) test; assay type: cell-based, Propionibacterium acnes; conditions: 50 mM sodium phosphate pH 6.0
Experimental: The time sterilization test method is as follows. Resuspend the P. acnes 34A strain colony in 0.9% saline to an OD600 of 0.05, which corresponds to 10^7 cfu/mL. The suspension was diluted 10-fold in 50 mM sodium phosphate (pH 6.0) to ˜10^6 cfu/mL. Add 0, 0.5×, 1×, 2× MIC of two-fold serial dilutions of PACL10 to the 34A strain, respectively. Ten-fold serial dilutions (0, 1, 2, 3 log) from the assay were plated on enhanced Clostridium agar (RCA) at each time point and incubated anaerobically at 37° C. for 3 days.

B1: PACL403: chimeric lysin, amino acid sequence SEQ ID NO: 271 (protein)
chain: MTFIQAKHHGGHNNPPVTRLVIHATCPDVGYPSASRAGRAVSTAHYFQETTRPASAHYICDISTTVQCLSEETVGYHAPPNSHSIGIEICADGGSHASFSNPAHAYTREQWLSPQVWPAVERAAMLARGICQRHNIPIRRLSIADVKAGKRGICGHNEVSEAFHQSDHDDPGPYFPWDGFIALVNGHSAPSRQEELTVSDGGEVRTPGQQDTKPSVPTPSLTEIGDQDMNGCYYNLNSKTRTYLIFDSRSGFYHEFSQGNGNGPMSPDYVNPIAKGWDTGSWPAISPGHAKVLKAALDKVRKGI
modifications: PACL403
Question: Which results are given for B1?
Answer: bactericidal activity against biofilm-associated P. acnes [1]: killed biofilm-associated P. acnes; MIC of selected lyases relative to Propionibacterium acnes ([2]; clade IA1, strain 1): 16 µg/mL; MIC of selected lyases relative to Propionibacterium acnes ([2]; clade IA1, strain 5): 16 µg/mL; MIC of selected lyases relative to Propionibacterium acnes ([2]; clade IA1, strain 7): 16 µg/mL; MIC of selected lyases relative to Propionibacterium acnes ([2]; clade IA2, strain 10): 8 µg/mL; MIC of selected lyases relative to Propionibacterium acnes ([2]; clade IA2, strain 17): 8 µg/mL; MIC of selected lyases relative to Propionibacterium acnes ([2]; clade IA2, strain 33): 8 µg/mL; MIC of selected lyases relative to Propionibacterium acnes ([2]; clade II, strain 34): 16 µg/mL

B2: PACL10: phage lysin, amino acid sequence SEQ ID NO: 10; 29.4 kDa (protein)
chain: MTFIQAAHHSSGSNLPPTRVVIHATCPELGFPRASAKGRAVSTARYFQSAISGGSAHYVVDVGETVQCLAEDVIAWHAPPNSRSLGIEICADGGSATSFKNPNVRYSRAQWLSPQVWPAVLRAAALTRQMCQKYGIPVTKLSASDLKAGKKGICGHVDVSNAWHQSDHDDPGPDFPWAEFMAAVKGGATNPDELELTVSQFSDLTKRLQGMQEQTHHDLGVVQTKLATMDTVKNPRTGAKWSLKDAIWSIWYYVLENRDRIAALEKKVK
modifications: PACL10
notes: 29.4 kDa
Question: B2 was tested. Which MBC ([3]; clade IA1, strain 1) did it give?
Answer: 25.6 μg/mL and 0.871 μM

Question: What about the MBC ([3]; clade IA1, strain 5) of the same molecule?
Answer: 12.8 μg/mL and 0.436 μM

Question: What about the MBC ([3]; clade IA1, strain 7) of the same molecule?
Answer: 12.8 μg/mL and 0.436 μM

Question: What about the MBC ([3]; clade IA1, strain 15) of the same molecule?
Answer: 25.6 μg/mL and 0.871 μM

Question: What about the MBC ([3]; clade IA1, strain 27) of the same molecule?
Answer: >25.6 μg/mL and >0.871 μM

Question: What about the MBC ([3]; clade IA2, strain 10) of the same molecule?
Answer: 12.8 μg/mL and 0.436 μM

Question: What about the MBC ([3]; clade IA2, strain 14) of the same molecule?
Answer: >25.6 μg/mL and >0.871 μM

Question: What about the MBC ([3]; clade IA2, strain 17) of the same molecule?
Answer: 25.6 μg/mL and 0.871 μM

Question: What about the MBC ([3]; clade IA2, strain 31) of the same molecule?
Answer: >25.6 μg/mL and >0.871 μM

Question: And the MBC ([3]; clade IA2, strain 33A)?
Answer: >25.6 μg/mL and >0.871 μM

Question: What about the MBC ([3]; clade IB, strain 13) of the same molecule?
Answer: 25.6 μg/mL and 0.871 μM

Question: And the MBC ([3]; clade II, strain 34A)?
Answer: 6.4 μg/mL and 0.218 μM

Question: And the MIC ([4]; clade IA1, strain 1)?
Answer: 6.4 μg/mL and 0.218 μM

Question: What about the MIC ([4]; clade IA1, strain 5) of the same molecule?
Answer: 12.8 μg/mL and 0.436 μM

Question: What about the MIC ([4]; clade IA1, strain 7) of the same molecule?
Answer: 6.4 μg/mL and 0.218 μM

Question: And the MIC ([4]; clade IA1, strain 15)?
Answer: 6.4 μg/mL and 0.218 μM

Question: And the MIC ([4]; clade IA1, strain 27)?
Answer: 12.8 μg/mL and 0.436 μM

Question: And the MIC ([4]; clade IA2, strain 10)?
Answer: 6.4 μg/mL and 0.218 μM

Question: What about the MIC ([4]; clade IA2, strain 14) of the same molecule?
Answer: 6.4 μg/mL and 0.218 μM

Question: What about the MIC ([4]; clade IA2, strain 17) of the same molecule?
Answer: 6.4 μg/mL and 0.218 μM

Question: What about the MIC ([4]; clade IA2, strain 31) of the same molecule?
Answer: 12.8 μg/mL and 0.436 μM

Question: What about the MIC ([4]; clade IA2, strain 33A) of the same molecule?
Answer: 12.8 μg/mL and 0.436 μM

Question: What about the MIC ([4]; clade IB, strain 13) of the same molecule?
Answer: 12.8 μg/mL and 0.436 μM

Question: And the MIC ([4]; clade II, strain 34A)?
Answer: 6.4 μg/mL and 0.218 μM

Question: And the “time for cfu/mL to drop below the detection limit” value ([5]; at 2× MIC 12.8 μg/mL)?
Answer: ≤ 2 h

Question: What about the “time for cfu/mL to drop below the detection limit” value ([5]; at MIC 6.4 μg/mL) of the same molecule?
Answer: ≤ 3 h

Question: And the “MIC of selected lyases relative to Propionibacterium acnes” value ([2]; clade IA1, strain 1)?
Answer: 8 µg/mL

Question: And the “MIC of selected lyases relative to Propionibacterium acnes” value ([2]; clade IA1, strain 5)?
Answer: 8 µg/mL

Question: What about the “MIC of selected lyases relative to Propionibacterium acnes” value ([2]; clade IA1, strain 7) of the same molecule?
Answer: 8 µg/mL

Question: What about the “MIC of selected lyases relative to Propionibacterium acnes” value ([2]; clade IA2, strain 10) of the same molecule?
Answer: 8 µg/mL

Question: What about the “MIC of selected lyases relative to Propionibacterium acnes” value ([2]; clade IA2, strain 17) of the same molecule?
Answer: 8 µg/mL

Question: And the “MIC of selected lyases relative to Propionibacterium acnes” value ([2]; clade IA2, strain 33)?
Answer: 8 µg/mL

Question: And the “MIC of selected lyases relative to Propionibacterium acnes” value ([2]; clade II, strain 34)?
Answer: 8 µg/mL
